This note sets out measurements from patent US20250235501A1 (UNIVERSITY OF CONNECTICUT, published 2025).

The assay deals with T1, Endogenous TRPM2 of mouse brain and cultured mouse cortical neurons (mouse, UniProt Q91YD4 1-1506).
T1 construct: whole, on cells
Briefly: co-IP with anti-TRPM2, western blot, PKCγ/TRPM2 ratio, brain tissue. As for the experimental part: Thus, whether PKC interacts with TRPM2 was investigated.
NP-40 lysis buffer ([…], 150 mM NaCl, 1 mM EDTA, 50 mM Tris, pH=8.0) containing proteinase inhibitors (Sigma-Aldrich, 539131-10VL) and phosphatase inhibitors (Thermal Fisher Scientific, 78428) was used to lyse both cultured cells and frozen brain tissue. For transfected cells, proteins were extracted 36 hours after transfection. Cell and tissue lysate were lysed by ultrasound using an ultrasonic cleaner (Thermal Fisher Scientific) filled with ice-cold water for 30 min. After incubated on ice for 1 h, lysate was centrifuged at 13000 g for 30 min and supernatant was collected. Protein concentration was measured using Pierce™ Rapid Gold BCA Protein Assay Kit (Thermal Fisher Scientific, A53225). 300 μg of protein was taken and diluted using NP-40 lysis buffer to make a total volume of 500 μl. Unused protein was allocated and frozen at −80° C. for future use. Appropriate amount of antibody was added based on instruction. After protein-antibody mixture was incubated on ice for 2 h, 25 μL of pre-washed Protein A/G PLUS-Agarose (Santa Cruz Biotechnology, sc-2003) was added, and the whole mixture was incubated at 4° C. for overnight. Then the mixture was centrifuged at 2500 g for Imin to get agarose beads. […] Then samples were ready for western blotting analysis.
A general note: A western blot detects proteins with antibodies after separation by electrophoresis.

T1 sequence (Q91YD4 whole entry): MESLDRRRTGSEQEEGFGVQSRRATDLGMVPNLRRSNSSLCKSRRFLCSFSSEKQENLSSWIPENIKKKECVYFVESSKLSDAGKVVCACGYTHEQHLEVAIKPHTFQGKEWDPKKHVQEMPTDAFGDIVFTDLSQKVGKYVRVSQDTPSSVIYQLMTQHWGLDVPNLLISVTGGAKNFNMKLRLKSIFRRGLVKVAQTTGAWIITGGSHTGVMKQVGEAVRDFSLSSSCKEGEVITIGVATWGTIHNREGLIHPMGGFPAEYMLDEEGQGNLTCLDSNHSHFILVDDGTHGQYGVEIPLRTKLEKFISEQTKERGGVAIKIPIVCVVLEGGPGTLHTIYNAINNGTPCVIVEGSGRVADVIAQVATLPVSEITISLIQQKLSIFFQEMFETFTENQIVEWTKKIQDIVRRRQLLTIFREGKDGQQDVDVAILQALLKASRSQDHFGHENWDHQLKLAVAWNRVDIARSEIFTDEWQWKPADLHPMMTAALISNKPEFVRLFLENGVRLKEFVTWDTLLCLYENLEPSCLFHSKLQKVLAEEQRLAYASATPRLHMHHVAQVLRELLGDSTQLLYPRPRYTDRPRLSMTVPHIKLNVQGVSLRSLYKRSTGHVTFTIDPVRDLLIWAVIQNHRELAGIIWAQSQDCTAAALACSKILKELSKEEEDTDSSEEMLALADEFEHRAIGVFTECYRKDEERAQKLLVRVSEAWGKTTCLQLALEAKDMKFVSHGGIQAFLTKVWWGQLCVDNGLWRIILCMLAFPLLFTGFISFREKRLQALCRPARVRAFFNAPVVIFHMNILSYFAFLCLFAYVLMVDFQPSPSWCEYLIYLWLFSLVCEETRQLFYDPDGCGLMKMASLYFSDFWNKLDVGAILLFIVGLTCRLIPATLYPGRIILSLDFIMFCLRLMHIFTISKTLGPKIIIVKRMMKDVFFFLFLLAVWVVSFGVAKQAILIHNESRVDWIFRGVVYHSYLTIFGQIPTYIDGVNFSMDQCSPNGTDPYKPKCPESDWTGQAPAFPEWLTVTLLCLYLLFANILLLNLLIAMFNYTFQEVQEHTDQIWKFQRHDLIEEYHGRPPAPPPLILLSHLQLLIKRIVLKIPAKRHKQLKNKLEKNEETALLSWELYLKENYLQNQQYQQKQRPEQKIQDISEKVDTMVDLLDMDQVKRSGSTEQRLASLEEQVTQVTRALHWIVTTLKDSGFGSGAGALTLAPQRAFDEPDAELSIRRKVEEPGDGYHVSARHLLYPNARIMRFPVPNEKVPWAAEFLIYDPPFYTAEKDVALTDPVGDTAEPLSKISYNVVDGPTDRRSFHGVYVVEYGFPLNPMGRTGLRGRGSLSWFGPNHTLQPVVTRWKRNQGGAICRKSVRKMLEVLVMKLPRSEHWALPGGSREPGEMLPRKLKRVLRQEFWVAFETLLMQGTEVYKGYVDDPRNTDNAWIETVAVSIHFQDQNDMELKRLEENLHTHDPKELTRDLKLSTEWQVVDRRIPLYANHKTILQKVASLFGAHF

B1: Endogenous PKCγ of mouse brain and cultured mouse cortical neurons (enzyme)
chain: not shown
notes: whole, on cells; also called neuron-specific PKC
Regarding B1, the “amount of PKCγ pulled down by anti-TRPM2, MCAO against sham mice” value was roughly 1.5 fold.
